The values that follow come from US20160368985A1.

Assay [1] deals with T1, soluble human FcRH5 protein fragment (human) (UniProt Q96RD9).
T1 sequence: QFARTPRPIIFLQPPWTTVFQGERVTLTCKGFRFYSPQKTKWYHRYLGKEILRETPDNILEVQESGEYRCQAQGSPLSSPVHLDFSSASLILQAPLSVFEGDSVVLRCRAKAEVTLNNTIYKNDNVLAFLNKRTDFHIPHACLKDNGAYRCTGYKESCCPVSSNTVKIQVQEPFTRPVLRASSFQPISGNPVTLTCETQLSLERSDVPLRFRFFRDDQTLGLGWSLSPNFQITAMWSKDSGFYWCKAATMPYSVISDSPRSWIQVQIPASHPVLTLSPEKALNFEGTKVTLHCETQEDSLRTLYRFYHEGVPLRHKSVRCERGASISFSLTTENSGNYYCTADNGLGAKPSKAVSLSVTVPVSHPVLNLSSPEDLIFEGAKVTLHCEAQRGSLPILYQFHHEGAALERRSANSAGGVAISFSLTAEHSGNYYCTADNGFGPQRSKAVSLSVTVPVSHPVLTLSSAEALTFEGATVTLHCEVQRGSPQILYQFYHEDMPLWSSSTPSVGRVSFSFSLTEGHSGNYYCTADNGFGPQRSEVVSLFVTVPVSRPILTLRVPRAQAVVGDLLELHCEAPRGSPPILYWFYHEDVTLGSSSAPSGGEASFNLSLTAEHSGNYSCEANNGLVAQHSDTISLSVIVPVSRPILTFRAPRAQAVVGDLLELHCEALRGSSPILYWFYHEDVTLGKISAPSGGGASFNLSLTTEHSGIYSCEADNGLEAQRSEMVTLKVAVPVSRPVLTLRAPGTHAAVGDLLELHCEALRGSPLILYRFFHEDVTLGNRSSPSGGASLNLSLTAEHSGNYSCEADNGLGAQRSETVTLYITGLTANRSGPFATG
The experiment in a line: SPR screening, human IgG capture.

The target in assay [2] is T2, soluble cynomolgus FcRH5 protein fragment (cynomolgus monkey).
T2 sequence: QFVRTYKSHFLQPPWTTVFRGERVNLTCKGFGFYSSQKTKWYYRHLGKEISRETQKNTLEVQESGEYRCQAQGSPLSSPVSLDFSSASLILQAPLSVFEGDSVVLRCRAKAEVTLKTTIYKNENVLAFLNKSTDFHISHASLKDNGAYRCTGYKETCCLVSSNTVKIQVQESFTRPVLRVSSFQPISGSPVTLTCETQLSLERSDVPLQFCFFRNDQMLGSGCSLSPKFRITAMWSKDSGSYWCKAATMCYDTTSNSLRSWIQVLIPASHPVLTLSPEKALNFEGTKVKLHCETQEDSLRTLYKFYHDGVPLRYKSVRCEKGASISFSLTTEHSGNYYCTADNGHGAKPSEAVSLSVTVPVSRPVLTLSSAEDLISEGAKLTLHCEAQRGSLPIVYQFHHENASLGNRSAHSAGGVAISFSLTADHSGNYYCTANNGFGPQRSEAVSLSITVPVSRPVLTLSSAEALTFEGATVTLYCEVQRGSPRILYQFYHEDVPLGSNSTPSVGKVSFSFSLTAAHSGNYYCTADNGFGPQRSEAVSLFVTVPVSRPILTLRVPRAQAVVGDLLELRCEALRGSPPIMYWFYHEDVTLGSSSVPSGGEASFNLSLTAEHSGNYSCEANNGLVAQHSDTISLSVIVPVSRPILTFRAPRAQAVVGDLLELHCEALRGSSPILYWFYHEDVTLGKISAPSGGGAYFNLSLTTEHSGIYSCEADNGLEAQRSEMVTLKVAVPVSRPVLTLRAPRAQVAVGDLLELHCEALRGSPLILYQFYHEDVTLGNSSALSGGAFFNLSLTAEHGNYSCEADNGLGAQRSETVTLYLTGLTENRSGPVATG
The experiment in a line: BIACORE. In general terms: SPR reads the build-up and loss of mass on a sensor chip optically.

Assay [3] has the same target. Description: SPR, human IgG capture, 1:1 model.
Assay [4] shares this target. Description: BIACORE, hIgG capture, 1:1 model, monovalent.

B1: hu1G7.v1 heavy chain W52F + light chain of hu1G7.v1.6 (antibody, part only; not given: hu1G7.v1.6 light chain, V domains shown, part only)
VH: EVQLVESGPGLVKPSETLSLTCTVSGFSLTRFGVHWVRQPPGKGLEWLGVIFRGGSTDYNAAFMSRLTISKDNSKNQVSLKLSSVTAADTAVYYCSNHYYGSSDYALDNWGQGTLVTVSS
For the molecule B1, the Kd (usually the equilibrium constant for the complex coming apart) in assay [1] turned out to be 81 nM.

B2: hu1G7.v1 heavy chain W52Y + light chain of hu1G7.v1.6 (antibody, part only; not given: hu1G7.v1.6 light chain, V domains shown, part only)
VH: EVQLVESGPGLVKPSETLSLTCTVSGFSLTRFGVHWVRQPPGKGLEWLGVIYRGGSTDYNAAFMSRLTISKDNSKNQVSLKLSSVTAADTAVYYCSNHYYGSSDYALDNWGQGTLVTVSS
For the molecule B2, the Kd in assay [1] amounted to 530 nM.

B3: hu1G7.v1 heavy chain W52H + light chain of hu1G7.v1.6 (antibody, part only; not given: hu1G7.v1.6 light chain, V domains shown, part only)
VH: EVQLVESGPGLVKPSETLSLTCTVSGFSLTRFGVHWVRQPPGKGLEWLGVIHRGGSTDYNAAFMSRLTISKDNSKNQVSLKLSSVTAADTAVYYCSNHYYGSSDYALDNWGQGTLVTVSS
In turn, B3 showed a Kd in assay [1] of 110 nM.

B4: hu1G7.v1 heavy chain M64V + light chain of hu1G7.v1.6 (antibody, part only; not given: hu1G7.v1.6 light chain, V domains shown, part only)
VH: EVQLVESGPGLVKPSETLSLTCTVSGFSLTRFGVHWVRQPPGKGLEWLGVIWRGGSTDYNAAFVSRLTISKDNSKNQVSLKLSSVTAADTAVYYCSNHYYGSSDYALDNWGQGTLVTVSS
For the molecule B4, the equilibrium dissociation constant (Kd) in assay [1] was determined as 2.7 nM.

B5: hu1G7.v85/38E4.v1 TDB (bispecific antibody, V domains shown)
VH 1: EVQLVESGPGLVKPSETLSLTCTVSGFSLTRFGVHWVRQPPGKGLEWLGVIWRGGSTDYNAAFVSRLTISKDNSKNQVSLKLSSVTAADTAVYYCSNHYYGSSDYALDNWGQGTLVTVSS
VL 1: DIQMTQSPSSLSASVGDRVTITCKASQDVRNLVVWFQQKPGKAPKLLIYSGSYRYSGVPSRFSGSGSGTDFTLTISSLQPEDFATYYCQQHYSPPYTFGQGTKVEIK
VH 2: EVQLVQSGAEVKKPGASVKVSCKASGFTFTSYYIHWVRQAPGQGLEWIGWIYPENDNTKYNEKFKDRVTITADTSTSTAYLELSSLRSEDTAVYYCARDGYSRYYFDYWGQGTLVTVSS
VL 2: DIVMTQSPDSLAVSLGERATINCKSSQSLLNSRTRKNYLAWYQQKPGQSPKLLIYWTSTRKSGVPDRFSGSGSGTDFTLTISSLQAEDVAVYYCKQSFILRTFGQGTKVEIK
In the case of B5, the Kd in assay [2] was found to be 7.8 nM. Further, in assay [3], the Kd is 6.8 nM; the koff (usually the first-order rate constant of dissociation) is 0.0008 s⁻¹; the kon (as a rule, a measure of how fast the partners come together) came to 100000 M⁻¹ s⁻¹. The molecule further showed a Kd in assay [4] of 6.76 nM.

B6: hu1G7.v1 heavy chain M64I + light chain of hu1G7.v1.6 (antibody, part only; not given: hu1G7.v1.6 light chain, V domains shown, part only)
VH: EVQLVESGPGLVKPSETLSLTCTVSGFSLTRFGVHWVRQPPGKGLEWLGVIWRGGSTDYNAAFISRLTISKDNSKNQVSLKLSSVTAADTAVYYCSNHYYGSSDYALDNWGQGTLVTVSS
B6 had a Kd in assay [1] of 2.7 nM.

B7: hu1G7.v93/38E4.v1 TDB (bispecific antibody, V domains shown)
VH 1: EVQLVESGPGLVKPSETLSLTCTVSGFSTTRFGVHWVRQPPGKGLEWLGVIWRGGSTDYNAAFVSRLTISKDNSKNQVSLKLSSVTAADTAVYYCSNHYYGSPDYALDNWGQGTLVTVSS
VL 1: DIQMTQSPSSLSASVGDRVTITCKASQDVSNLVVWFQQKPGKAPKLLIYSGSYRYSGVPSRFSGSGSGTDFTLTISSLQPEDFATYYCQQHYSPPYTFGQGTKVEIK
VH 2: EVQLVQSGAEVKKPGASVKVSCKASGFTFTSYYIHWVRQAPGQGLEWIGWIYPENDNTKYNEKFKDRVTITADTSTSTAYLELSSLRSEDTAVYYCARDGYSRYYFDYWGQGTLVTVSS
VL 2: DIVMTQSPDSLAVSLGERATINCKSSQSLLNSRTRKNYLAWYQQKPGQSPKLLIYWTSTRKSGVPDRFSGSGSGTDFTLTISSLQAEDVAVYYCKQSFILRTFGQGTKVEIK
In assay [2], B7 yielded a Kd of 8.1 nM.

B8: hu1G7.v1 heavy chain W52L + light chain of hu1G7.v1.6 (antibody, part only; not given: hu1G7.v1.6 light chain, V domains shown, part only)
VH: EVQLVESGPGLVKPSETLSLTCTVSGFSLTRFGVHWVRQPPGKGLEWLGVILRGGSTDYNAAFMSRLTISKDNSKNQVSLKLSSVTAADTAVYYCSNHYYGSSDYALDNWGQGTLVTVSS
In assay [1], B8 returned a Kd of 250 nM.

B9: hu1G7.v1 heavy chain M64F + light chain of hu1G7.v1.6 (antibody, part only; not given: hu1G7.v1.6 light chain, V domains shown, part only)
VH: EVQLVESGPGLVKPSETLSLTCTVSGFSLTRFGVHWVRQPPGKGLEWLGVIWRGGSTDYNAAFFSRLTISKDNSKNQVSLKLSSVTAADTAVYYCSNHYYGSSDYALDNWGQGTLVTVSS
Turning to B9, the Kd in assay [1] stood at 2.6 nM.
